From paper PMC12473987 come the findings set out here.

This experiment addresses strep-HA3/B (Clostridium botulinum serotype B strain Okra). As to the kind of experiment: SEC; […], PBS pH 6.0, 0.75 mL/min, […]. (In general: SEC sorts molecules by how far they enter the pores of the column.)

What is called stoichiometry N is a count of units in the complex or per binding partner. In turn, strep-HA3/B (domain or fragment) gave a stoichiometry N of 3.
